B1: Db-Glyco-scTRAIL3-FAVSGAA (other)
chain: LEASDYKDDDDKGAEVQLVESGGGLVQPGGSLRLSCAASGFSLTNYGVHWVRQAPGKGLEWLGVIWSGGNTDYNTPFTSRFTISRDNSKNTLYLQMNSLRAEDTAVYYCARALTYYDYEFAYWGQGTTVTVSSGGGGSDIQLTQSPSFLSASVGDRVTITCRASQSIGTNIHWYQQKPGKAPKLLIKYASESISGVPSRFSGSGSGTEFTLTISSLQPEDFATYYCQQNNNWPTTFGAGTKLEIKRAAAGNGTSNGTSEFGGAAAHITGTRGRSNTLSSPNSKNEKALGRKINSWESSRSGHSFLSNLHLRNGELVIHEKGFYYIYSQTYFRFQEEIKENTKNDKQMVQYIYKYTSYPDPILLMKSARNSCWSKDAEYGLYSIYQGGIFELKENDRIFVSVTNEHLIDMDHEASFFGAFAVSGAAAHITGTRGRSNTLSSPNSKNEKALGRKINSWESSRSGHSFLSNLHLRNGELVIHEKGFYYIYSQTYFRFQEEIKENTKNDKQMVQYIYKYTSYPDPILLMKSARNSCWSKDAEYGLYSIYQGGIFELKENDRIFVSVTNEHLIDMDHEASFFGAFAVSGAAAHITGTRGRSNTLSSPNSKNEKALGRKINSWESSRSGHSFLSNLHLRNGELVIHEKGFYYIYSQTYFRFQEEIKENTKNDKQMVQYIYKYTSYPDPILLMKSARNSCWSKDAEYGLYSIYQGGIFELKENDRIFVSVTNEHLIDMDHEASFFGAFAVS
modifications: two N-glycosylation sites in the peptide AAAGNGTSNGTSEFGG, shown to be glycosylated
B2: Db-Glyco-scTRAIL3-FAVSGIA (other)
chain: LEASDYKDDDDKGAEVQLVESGGGLVQPGGSLRLSCAASGFSLTNYGVHWVRQAPGKGLEWLGVIWSGGNTDYNTPFTSRFTISRDNSKNTLYLQMNSLRAEDTAVYYCARALTYYDYEFAYWGQGTTVTVSSGGGGSDIQLTQSPSFLSASVGDRVTITCRASQSIGTNIHWYQQKPGKAPKLLIKYASESISGVPSRFSGSGSGTEFTLTISSLQPEDFATYYCQQNNNWPTTFGAGTKLEIKRAAAGNGTSNGTSEFGGIAAHITGTRGRSNTLSSPNSKNEKALGRKINSWESSRSGHSFLSNLHLRNGELVIHEKGFYYIYSQTYFRFQEEIKENTKNDKQMVQYIYKYTSYPDPILLMKSARNSCWSKDAEYGLYSIYQGGIFELKENDRIFVSVTNEHLIDMDHEASFFGAFAVSGIAAHITGTRGRSNTLSSPNSKNEKALGRKINSWESSRSGHSFLSNLHLRNGELVIHEKGFYYIYSQTYFRFQEEIKENTKNDKQMVQYIYKYTSYPDPILLMKSARNSCWSKDAEYGLYSIYQGGIFELKENDRIFVSVTNEHLIDMDHEASFFGAFAVSGIAAHITGTRGRSNTLSSPNSKNEKALGRKINSWESSRSGHSFLSNLHLRNGELVIHEKGFYYIYSQTYFRFQEEIKENTKNDKQMVQYIYKYTSYPDPILLMKSARNSCWSKDAEYGLYSIYQGGIFELKENDRIFVSVTNEHLIDMDHEASFFGAFAVS
modifications: glycosylated connecting peptide
B3: Db8-Glyco-scTRAIL3-FAVSGAA (other)
chain: LEASDYKDDDDKGAEVQLVESGGGLVQPGGSLRLSCAASGFSLTNYGVHWVRQAPGKGLEWLGVIWSGGNTDYNTPFTSRFTISRDNSKNTLYLQMNSLRAEDTAVYYCARALTYYDYEFAYWGQGTTVTVSSGGGGSGGGDIQLTQSPSFLSASVGDRVTITCRASQSIGTNIHWYQQKPGKAPKLLIKYASESISGVPSRFSGSGSGTEFTLTISSLQPEDFATYYCQQNNNWPTTFGAGTKLEIKRAAAGNGTSNGTSEFGGAAAHITGTRGRSNTLSSPNSKNEKALGRKINSWESSRSGHSFLSNLHLRNGELVIHEKGFYYIYSQTYFRFQEEIKENTKNDKQMVQYIYKYTSYPDPILLMKSARNSCWSKDAEYGLYSIYQGGIFELKENDRIFVSVTNEHLIDMDHEASFFGAFAVSGAAAHITGTRGRSNTLSSPNSKNEKALGRKINSWESSRSGHSFLSNLHLRNGELVIHEKGFYYIYSQTYFRFQEEIKENTKNDKQMVQYIYKYTSYPDPILLMKSARNSCWSKDAEYGLYSIYQGGIFELKENDRIFVSVTNEHLIDMDHEASFFGAFAVSGAAAHITGTRGRSNTLSSPNSKNEKALGRKINSWESSRSGHSFLSNLHLRNGELVIHEKGFYYIYSQTYFRFQEEIKENTKNDKQMVQYIYKYTSYPDPILLMKSARNSCWSKDAEYGLYSIYQGGIFELKENDRIFVSVTNEHLIDMDHEASFFGAFAVS
modifications: glycosylated connecting peptide
B4: scFvhu225-EHD2-scTRAIL3-FLVGGGPQRVA (other)
chain: DYKDDDDKGGGGSGTEVQLVESGGGLVQPGGSLRLSCAASGFSLTNYGVHWVRQAPGKGLEWLGVIWSGGNTDYNTPFTSRFTISRDNSKNTLYLQMNSLRAEDTAVYYCARALTYYDYEFAYWGQGTTVTVSSGGGGSGGGGSGGGGSDIQLTQSPSFLSASVGDRVTITCRASQSIGTNIHWYQQKPGKAPKLLIKYASESISGVPSRFSGSGSGTEFTLTISSLQPEDFATYYCQQNNNWPTTFGAGTKLEIKRAAAGGSGGDFTPPTVKILQSSCDGGGHFPPTIQLLCLVSGYTPGTINITWLEDGQVMDVDLSTASTTQEGELASTQSELTLSQKHWLSDRTYTCQVTYQGHTFEDSTKKCADSNGGSGGASSGGGPQRVAAHITGTRGRSNTLSSPNSKNEKALGRKINSWESSRSGHSFLSNLHLRNGELVIHEKGFYYIYSQTYFRFQEEIKENTKNDKQMVQYIYKYTSYPDPILLMKSARNSCWSKDAEYGLYSIYQGGIFELKENDRIFVSVTNEHLIDMDHEASFFGAFLVGGGPQRVAAHITGTRGRSNTLSSPNSKNEKALGRKINSWESSRSGHSFLSNLHLRNGELVIHEKGFYYIYSQTYFRFQEEIKENTKNDKQMVQYIYKYTSYPDPILLMKSARNSCWSKDAEYGLYSIYQGGIFELKENDRIFVSVTNEHLIDMDHEASFFGAFLVGGGPQRVAAHITGTRGRSNTLSSPNSKNEKALGRKINSWESSRSGHSFLSNLHLRNGELVIHEKGFYYIYSQTYFRFQEEIKENTKNDKQMVQYIYKYTSYPDPILLMKSARNSCWSKDAEYGLYSIYQGGIFELKENDRIFVSVTNEHLIDMDHEASFFGAFLVG
B5: Dbhu225-scTRAIL3-FLVGGGPQRVA (other, not shown: small tags and cut ends)
chain: DYKDDDDKGGGGSGTEVQLVESGGGLVQPGGSLRLSCAASGFSLTNYGVHWVRQAPGKGLEWLGVIWSGGNTDYNTPFTSRFTISRDNSKNTLYLQMNSLRAEDTAVYYCARALTYYDYEFAYWGQGTTVTVSSGGGGSDIQLTQSPSFLSASVGDRVTITCRASQSIGTNIHWYQQKPGKAPKLLIKYASESISGVPSRFSGSGSGTEFTLTISSLQPEDFATYYCQQNNNWPTTFGAGTKLEIKRAAAGGSGGGPQRVAAHITGTRGRSNTLSSPNSKNEKALGRKINSWESSRSGHSFLSNLHLRNGELVIHEKGFYYIYSQTYFRFQEEIKENTKNDKQMVQYIYKYTSYPDPILLMKSARNSCWSKDAEYGLYSIYQGGIFELKENDRIFVSVTNEHLIDMDHEASFFGAFLVGGGPQRVAAHITGTRGRSNTLSSPNSKNEKALGRKINSWESSRSGHSFLSNLHLRNGELVIHEKGFYYIYSQTYFRFQEEIKENTKNDKQMVQYIYKYTSYPDPILLMKSARNSCWSKDAEYGLYSIYQGGIFELKENDRIFVSVTNEHLIDMDHEASFFGAFLVGGGPQRVAAHITGTRGRSNTLSSPNSKNEKALGRKINSWESSRSGHSFLSNLHLRNGELVIHEKGFYYIYSQTYFRFQEEIKENTKNDKQMVQYIYKYTSYPDPILLMKSARNSCWSKDAEYGLYSIYQGGIFELKENDRIFVSVTNEHLIDMDHEASFFGAFLVG
B6: dsDbhu225-scTRAIL3-FLVGGGPQRVA (other, not shown: small tags and cut ends)
chain: DYKDDDDKGGGGSGTEVQLVESGGGLVQPGGSLRLSCAASGFSLTNYGVHWVRQAPGKCLEWLGVIWSGGNTDYNTPFTSRFTISRDNSKNTLYLQMNSLRAEDTAVYYCARALTYYDYEFAYWGQGTTVTVSSGGGGSDIQLTQSPSFLSASVGDRVTITCRASQSIGTNIHWYQQKPGKAPKLLIKYASESISGVPSRFSGSGSGTEFTLTISSLQPEDFATYYCQQNNNWPTTFGCGTKLEIKRAAAGGSGGGPQRVAAHITGTRGRSNTLSSPNSKNEKALGRKINSWESSRSGHSFLSNLHLRNGELVIHEKGFYYIYSQTYFRFQEEIKENTKNDKQMVQYIYKYTSYPDPILLMKSARNSCWSKDAEYGLYSIYQGGIFELKENDRIFVSVTNEHLIDMDHEASFFGAFLVGGGPQRVAAHITGTRGRSNTLSSPNSKNEKALGRKINSWESSRSGHSFLSNLHLRNGELVIHEKGFYYIYSQTYFRFQEEIKENTKNDKQMVQYIYKYTSYPDPILLMKSARNSCWSKDAEYGLYSIYQGGIFELKENDRIFVSVTNEHLIDMDHEASFFGAFLVGGGPQRVAAHITGTRGRSNTLSSPNSKNEKALGRKINSWESSRSGHSFLSNLHLRNGELVIHEKGFYYIYSQTYFRFQEEIKENTKNDKQMVQYIYKYTSYPDPILLMKSARNSCWSKDAEYGLYSIYQGGIFELKENDRIFVSVTNEHLIDMDHEASFFGAFLVG

Results on six molecules are retold here after patent publication US20180094059A1 (UNIVERSITAT STUTTGART, published 2018).

One assay concerns the target T1, EGFR on EGFR-positive tumor cell lines (UniProt P00533 25-1210, limits assumed). Briefly: cell-based or functional assay.
For the molecule B1, the “EC50 of cell death induction, Colo205, with Bortezomib” value is 0.033 nM; the “EC50 of cell death induction, Colo205, with Bortezomib + Cetuximab” value (from here on “EC50 … Colo205, with Bortezomib + Cetuximab”) amounted to 0.074 nM; the “EC50 of cell death induction, HCT116, with Bortezomib” value stood at 0.066 nM; the “EC50 of cell death induction, HCT116, with Bortezomib + Cetuximab” value (from here on “EC50 … HCT116, with Bortezomib + Cetuximab”) stood at 0.45 nM. In addition, the “EC50 of cell death induction, HT1080, with Bortezomib” value was found to be 0.001 nM and the “EC50 of cell death induction, HT1080, with Bortezomib + Cetuximab” value (“EC50 … HT1080, with Bortezomib + Cetuximab” for short) came out at 0.01 nM.

Consider B2, for which the “EC50 of cell death induction, Colo205, with Bortezomib” value turned out to be 0.019 nM; the “EC50 … Colo205, with Bortezomib + Cetuximab” value was 0.032 nM; the “EC50 of cell death induction, HCT116, with Bortezomib” value amounted to 0.043 nM; the “EC50 … HCT116, with Bortezomib + Cetuximab” value came to 0.161 nM. The “EC50 of cell death induction, HT1080, with Bortezomib” value is 0.0006 nM and the “EC50 … HT1080, with Bortezomib + Cetuximab” value was 0.005 nM.

As to B3, the “EC50 of cell death induction, Colo205, with Bortezomib” value was 0.026 nM; the “EC50 … Colo205, with Bortezomib + Cetuximab” value was 0.061 nM; the “EC50 of cell death induction, HCT116, with Bortezomib” value stood at 0.051 nM; the “EC50 … HCT116, with Bortezomib + Cetuximab” value was 0.3 nM. For the same molecule, the “EC50 of cell death induction, HT1080, with Bortezomib” value worked out at 0.0009 nM and the “EC50 … HT1080, with Bortezomib + Cetuximab” value was 0.007 nM.

In a further assay the target is T1, EGFR on EGFR-positive tumor cell lines. In words: cell-based or functional assay. The source holds these as a separate data set.
Turning to B4, the “EC50 of cell death induction, Colo205, with Bortezomib” value worked out at 0.0018 nM; the “EC50 of cell death induction, Colo205, without bortezomib” value (“EC50 … Colo205, without bortezomib” for short) is 0.0119 nM; the “EC50 of cell death induction, Colo205 in presence of Cetuximab, with bortezomib” value (“EC50 … of Cetuximab, with bortezomib” for short) was found to be 0.0067 nM; the “EC50 of cell death induction, Colo205 in presence of Cetuximab, without bortezomib” value (shortened to “EC50 … of Cetuximab, without bortezomib”) was 0.0693 nM.

For B5, the “EC50 of cell death induction, Colo205, with Bortezomib” value is 0.0038 nM; the “EC50 … Colo205, without bortezomib” value came to 0.041 nM; the “EC50 … of Cetuximab, with bortezomib” value was 0.0138 nM; the “EC50 … of Cetuximab, without bortezomib” value was found to be 0.102 nM.

As for B6, the “EC50 of cell death induction, Colo205, with Bortezomib” value worked out at 0.0025 nM; the “EC50 … Colo205, without bortezomib” value was 0.0212 nM; the “EC50 … of Cetuximab, with bortezomib” value stood at 0.0072 nM; the “EC50 … of Cetuximab, without bortezomib” value was determined as 0.0423 nM.
